From patent US6132730
Several values for one entry are separate records, joined by “and”; a condition that tells them apart may be missing. Identical values can stand only once. Like-named read-outs stand apart in the source and are kept apart here.

Tests used:
[1] = molecular target: truncated Tissue Factor tTF219 (extracellular domain of the mature Tissue Factor protein, amino acids 1-219) (human)
H6-tTF221-cys-C' (human) [2] = molecular target: H6-tTF221-cys-C' (human)
[3] = molecular target: H6-N'-cys-tTF219 dimer (human)
[4] = molecular target: truncated Tissue Factor tTF219 (extracellular domain of the mature Tissue Factor protein, amino acids 1-219) (human); remark: listed apart in the source
[5] = molecular target: IgG-H6-N'-cys-tTF219 (human)
[6] = molecular target: truncated Tissue Factor tTF219 (extracellular domain of the mature Tissue Factor protein, amino acids 1-219) (human); remark: listed apart in the source
[7] = molecular target: I-A^d (MHC Class II antigen) on A20 mouse B-lymphoma cells (mouse) (UniProt P04228)
[8] = molecular target: truncated Tissue Factor tTF219 (extracellular domain of the mature Tissue Factor protein, amino acids 1-219) (human); remark: listed apart in the source
[9] = molecular target: truncated Tissue Factor tTF219 (extracellular domain of the mature Tissue Factor protein, amino acids 1-219) (human); remark: listed apart in the source
H6-tTF221-cys-C' (human) [10] = molecular target: H6-tTF221-cys-C' (human); remark: listed apart in the source

## B21-2/10H10 bispecific antibody (Fab' arm of B21-2 linked to Fab' arm of 10H10)
[1]
  tTF concentration at which plasma coagulated in 50 seconds (A20 cells coated with B21-2/10H10): 100 pM
H6-tTF221-cys-C' (human) [2]
  tTF concentration at which plasma coagulated in 50 seconds (A20 cells coated with B21-2/10H10): 1 nM
[3]
  tTF concentration at which plasma coagulated in 50 seconds (A20 cells coated with B21-2/10H10): 100 pM and 200 pM
[4]
  tTF concentration at which plasma coagulated in 50 seconds (A20 cells coated with B21-2/10H10): 1 nM
[5]
  tTF concentration at which plasma coagulated in 50 seconds (A20 cells coated with B21-2/10H10): 5 nM
[6]
  clotting time of citrated mouse plasma on A20 cells: 36 s
[7]
  clotting time of citrated mouse plasma on A20 cells: 36 s
[8]
  tTF concentration at which plasma coagulated in 50 seconds (A20 cells coated with B21-2/10H10): 3 nM
H6-tTF219-cys-C' (human)
  tTF concentration at which plasma coagulated in 50 seconds (A20 cells coated with B21-2/10H10): 3 nM
H6-N'-cys-tTF219 (human)
  tTF concentration at which plasma coagulated in 50 seconds (A20 cells coated with B21-2/10H10): 3 nM
[9]
  tTF concentration at which plasma coagulated in 50 seconds (A20 cells coated with B21-2/10H10): 500 pM
H6-tTF221-cys-C' (human) [10]
  tTF concentration at which plasma coagulated in 50 seconds (A20 cells coated with B21-2/10H10): 500 pM
tTF221-cys-C' (human)
  tTF concentration at which plasma coagulated in 50 seconds (A20 cells coated with B21-2/10H10): 500 pM
tTF220-cys-C' (human)
  tTF concentration at which plasma coagulated in 50 seconds (A20 cells coated with B21-2/10H10): 500 pM
H6-tTF220-cys-C' (human)
  tTF concentration at which plasma coagulated in 50 seconds (A20 cells coated with B21-2/10H10): 500 pM
